Assay in all cases: cell-based or functional assay
Assay [1] concerns the target JNK1, P45983.
Assay [2] has as its target JNK3, P53779.
Assay [3] has as its target JNK2, P45984.

Square brackets hold non-standard residues; d marks the D form. Ends that are not written are not given here.

JNK1, P45983, sequence (P45983 whole entry): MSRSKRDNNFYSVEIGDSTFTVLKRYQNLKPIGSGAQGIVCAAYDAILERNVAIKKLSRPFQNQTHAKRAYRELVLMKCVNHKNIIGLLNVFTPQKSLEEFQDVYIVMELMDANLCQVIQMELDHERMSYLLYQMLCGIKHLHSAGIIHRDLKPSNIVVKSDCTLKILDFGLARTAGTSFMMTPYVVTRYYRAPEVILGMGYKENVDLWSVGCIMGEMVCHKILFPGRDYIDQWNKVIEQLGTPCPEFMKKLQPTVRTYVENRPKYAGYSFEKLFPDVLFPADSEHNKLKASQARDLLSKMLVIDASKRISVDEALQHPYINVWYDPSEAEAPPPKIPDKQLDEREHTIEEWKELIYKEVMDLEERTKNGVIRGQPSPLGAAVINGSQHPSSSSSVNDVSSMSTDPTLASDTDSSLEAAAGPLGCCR
JNK3, P53779, sequence (P53779 whole entry): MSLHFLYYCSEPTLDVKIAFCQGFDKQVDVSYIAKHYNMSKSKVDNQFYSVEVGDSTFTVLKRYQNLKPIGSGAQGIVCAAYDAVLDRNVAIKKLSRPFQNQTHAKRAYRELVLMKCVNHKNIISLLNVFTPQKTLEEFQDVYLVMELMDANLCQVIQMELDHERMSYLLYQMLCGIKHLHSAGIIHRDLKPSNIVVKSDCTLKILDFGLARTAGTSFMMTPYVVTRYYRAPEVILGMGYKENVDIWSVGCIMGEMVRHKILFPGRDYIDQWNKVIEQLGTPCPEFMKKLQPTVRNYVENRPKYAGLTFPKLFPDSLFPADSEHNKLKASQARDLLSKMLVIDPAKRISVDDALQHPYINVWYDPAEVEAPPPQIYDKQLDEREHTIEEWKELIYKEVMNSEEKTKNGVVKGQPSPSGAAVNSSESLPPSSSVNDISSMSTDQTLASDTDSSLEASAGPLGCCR

On to [dD][dQ][dS][dR][dP][dV][dQ][dP][dF][dL][dN][dL][dT][dT][dP][dR][dK][dP][dR][dP][dP][dR][dR][dR][dQ][dR][dR][dK][dK][dR]G [D-TAT-IB1(s)], for which the inhibition of GST-Jun (aa 1-73) phosphorylation by recombinant JNK; fold less efficient than L-TAT-IB1(s) in assay [1], in assay [2] and in assay [3] was 10 to 20 fold each time.
Turning to GRKKRRQRRRPPRPKRPTTLNLFPQVPRSQD [L-TAT-IB1(s)], the inhibition of c-Jun, ATF2 and Elk1 phosphorylation by JNKs (solid phase kinase assay, 33P, SDS-PAGE) in assay [1], in assay [2] and in assay [3] was 2.5 µM throughout.

These data come from US20110183888A1.
